Data on three substances can be found in paper PMC3646955.

What all share (assay): purified protein
Assay type in all cases: biochemical, Serratia marcescens

Series [1] concerns CN[C@@H]1[C@H](O)[C@H](NC)[C@H]2O[C@@]3(O)C(=O)C[C@@H](C)O[C@H]3O[C@@H]2[C@H]1O. To be noted: 200 μM ATP, 50 mM Tris-HCl pH 7.5, 10 mM MgCl2, 50 mM KCl, 25 °C.
In series [2] the test system is Nc1ccn([C@@H]2O[C@H](COP(=O)(O)OP(=O)(O)OP(=O)(O)O)[C@@H](O)[C@H]2O)c(=O)n1. To be noted: 750 μM SPT, 50 mM Tris-HCl pH 7.5, 10 mM MgCl2, 50 mM KCl, 25 °C.
Series [3] deals with O=P(O)(O)OP(=O)(O)OP(=O)(O)OC[C@H]1O[C@@H](n2cnc3c(O)ncnc32)[C@H](O)[C@@H]1O. To be noted: 750 μM SPT, 50 mM Tris-HCl pH 7.5, 10 mM MgCl2, 50 mM KCl, 25 °C.
The subject of series [4] is O=c1ccn([C@@H]2O[C@H](COP(=O)(O)OP(=O)(O)OP(=O)(O)O)[C@@H](O)[C@H]2O)c(=O)[nH]1. To be noted: 750 μM SPT, 50 mM Tris-HCl pH 7.5, 10 mM MgCl2, 50 mM KCl, 25 °C.
Series [5] has as its system CCN[C@@H]1C[C@H](N)[C@@H](O[C@H]2OC(CN)=CC[C@H]2N)[C@H](O)[C@H]1O[C@H]1OC[C@](C)(O)[C@H](NC)[C@H]1O. To be noted: 500 μM acetyl-CoA.
Series [6] has as its system CN[C@@H]1[C@@H](O)[C@@H](O[C@@H]2[C@@H](O)[C@H](O[C@H]3OC(CN)=CC[C@H]3N)[C@@H](N)C[C@H]2N)OC[C@]1(C)O. Particulars: 500 μM acetyl-CoA.
The subject of series [7] is NCC[C@H](O)C(=O)N[C@@H]1C[C@H](N)[C@@H](O[C@H]2O[C@H](CN)[C@@H](O)[C@H](O)[C@H]2O)[C@H](O)[C@H]1O[C@H]1O[C@H](CO)[C@@H](O)[C@H](N)[C@H]1O. To be noted: 500 μM acetyl-CoA, 50 mM HEPES pH 7.5, AAC(6′) domain.
Series [8] concerns NC[C@H]1O[C@H](O[C@H]2[C@H](O)[C@@H](O[C@H]3O[C@H](CO)[C@@H](O)[C@H](N)[C@H]3O)[C@H](N)C[C@@H]2N)[C@H](N)C[C@@H]1O. To be noted: 500 μM acetyl-CoA.
Series [9] has as its system NC[C@@H]1O[C@H](O[C@H]2[C@@H](O)[C@H](O[C@@H]3[C@@H](O)[C@H](N)C[C@H](N)[C@H]3O[C@H]3O[C@H](CN)[C@@H](O)[C@H](O)[C@H]3N)O[C@@H]2CO)[C@H](N)[C@@H](O)[C@@H]1O. Particulars: 500 μM acetyl-CoA, 50 mM HEPES pH 7.5.
In series [10] the test system is NC[C@H]1O[C@H](O[C@H]2[C@H](O[C@@H]3O[C@H](CO)[C@@H](O)[C@H]3O)[C@@H](O)[C@H](N)C[C@@H]2N)[C@H](N)[C@@H](O)[C@@H]1O. Particulars: 500 μM acetyl-CoA, 50 mM HEPES pH 7.5.
Setting [11] is: 50 mM HEPES pH 7.5, AAC(6′) domain.

Take “CHis6-tagged ANT(3″)-Ii(1-266) (Serratia marcescens)”: the Km (usually the concentration of substrate that gives half-maximal velocity) in [1] is 0.123 ± 0.015 µM; in [2] it was 33.3 ± 5.6 µM; in series [3], 12.6 ± 1.5 µM; in [4] it was 26.2 ± 5.7 µM. Further, the kcat (commonly the number of substrate molecules converted per active site and unit of time at saturation) in [1] was 5.13 ± 0.11 s⁻¹; in [2] it was 0.709 ± 0.04 s⁻¹; in series [3], 0.481 ± 0.013 s⁻¹; in series [4], 0.603 ± 0.047 s⁻¹. Moreover, the kcat/Km (in general, the turnover number divided by the Michaelis constant) in series [1] was determined as 4.15e+07 ± 5.1e+06 M⁻¹ s⁻¹; in series [2], 21300 ± 3800 M⁻¹ s⁻¹; in series [3] it was 38100 ± 4500 M⁻¹ s⁻¹; in series [4], 23000 ± 5300 M⁻¹ s⁻¹.

In the case of “NHis10-tagged ANT(3″)-Ii/AAC(6′)-IId (Serratia marcescens)”, the Km in series [5] (setting [11]) turned out to be 1.77 ± 0.41 µM; in series [6] (setting [11]), 2.20 ± 0.60 µM; in series [7] it was 0.556 ± 0.130 µM; in series [8] (setting [11]) it was 7.92 ± 0.53 µM. The kcat came out at 1.91 ± 0.08 s⁻¹ in [5] (setting [11]), 2.93 ± 0.16 s⁻¹ in series [6] (setting [11]), 2.92 ± 0.1 s⁻¹ in [7] and 3.84 ± 0.07 s⁻¹ in series [8] (setting [11]). Moreover, the kcat/Km was 1.08e+06 ± 250000 M⁻¹ s⁻¹ in series [5] (setting [11]), 1.33e+06 ± 370000 M⁻¹ s⁻¹ in [6] (setting [11]), 5.25e+06 ± 1.25e+06 M⁻¹ s⁻¹ in [7] and 485000 ± 34000 M⁻¹ s⁻¹ in [8] (setting [11]).

Regarding “NHis6-tagged AAC(6′)-IId(267-463) (Serratia marcescens)”, the Km in [5] (50 mM HEPES pH 7.5) came to 3.87 ± 0.90 µM; in series [6] (50 mM HEPES pH 7.5) it was 4.92 ± 1.14 µM; in series [9], 32.1 ± 11.1 µM; in [8] (50 mM HEPES pH 7.5) it was 14.8 ± 3.4 µM; in [10], 69.3 ± 4.5 µM. Besides, the kcat in series [5] (50 mM HEPES pH 7.5) is 3.21 ± 0.2 s⁻¹; in series [6] (50 mM HEPES pH 7.5), 5.35 ± 0.27 s⁻¹; in series [9], 11.1 ± 1 s⁻¹; in [8] (50 mM HEPES pH 7.5), 3.73 ± 0.25 s⁻¹; in [10], 5.7 ± 0.12 s⁻¹. The kcat/Km in [5] (50 mM HEPES pH 7.5) is 829000 ± 200000 M⁻¹ s⁻¹; in series [6] (50 mM HEPES pH 7.5) it was 1.09e+06 ± 260000 M⁻¹ s⁻¹; in series [9], 346000 ± 124000 M⁻¹ s⁻¹; in series [8] (50 mM HEPES pH 7.5), 252000 ± 60000 M⁻¹ s⁻¹; in [10], 82200 ± 5600 M⁻¹ s⁻¹.
